Molecular target: hK3 (PSA) (human) (UniProt P07288)
Experiment: cell-based or functional assay

hK3 (PSA) (human), sequence (P07288 25-261 limits assumed): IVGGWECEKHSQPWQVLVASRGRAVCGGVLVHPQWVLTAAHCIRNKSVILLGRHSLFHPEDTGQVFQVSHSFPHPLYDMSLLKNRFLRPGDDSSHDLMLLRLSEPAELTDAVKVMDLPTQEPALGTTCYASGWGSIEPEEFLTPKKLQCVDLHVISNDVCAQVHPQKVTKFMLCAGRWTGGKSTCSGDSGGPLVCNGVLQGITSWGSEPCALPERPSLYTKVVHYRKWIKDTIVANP

- Inhibition % (residual enzyme activity, CFP-TFRSA-YFP substrate, 90 min at 37°): 45%
B1: rACT8.20 (designed binder)
chain: MRGSHHHHHHSRHPNSPLDEENLTQENQDRGTHVDLGLASANVDFAFSLYKQLVLKAPDKNVIFSPLSISTALAFLSLGAHNTTLTEILKGLKFNLTETSEAEIHQSFQHLLRTLNQSSDELQLSMGNAMFVKEQLSLLDRFTEDAKRLYGSEAFATDFQDSAAAKKLINDYVKNGTRGKITDLIKDLDSQTMMVLVNYIFFKAKWEMPFDPQDTHQSRFYLSKKKWVMVPMMSLHHLTIPYFRDEELSCTVVELKYTGNASALFILPDQDKMEEVEAMLLPETLKRWRDSLEFREIGELYLPKFSISRDYNLNDILLQLGIEEAFTSKADLSGITGARNLAVSQVVHKAVLDVFEEGTEASAATAVKITLRSRAVETRTIVRFNRPFLMIIVPTDTQNIFFMSKVTNPKQA

— US20060269536A1
